The text below walks through data of the DeepSol protein solubility set.

The data set is described as follows: soluble on expression in E. coli; label from the status in PepcDB or PDB records.
Take “PDLLIELFSEEIPARMQARAREDLKKLVTDGLVEAGLTYASAGAFSTPRRLVLSVEGLSAESPTLREERKGPKADAPAAAIEGFLRSTGLTRDQLETREDKKGAVLFAVVEKPGRRAPDIVAEVLERTIRTFPWPKSMRWGTGSLRWVRPLHSILCLLSDEAGSQVVPVTVDQVTAVNTTEGHRFMAPGRFAVTGFDDYRAKLQRALVMLDAAEREQAIWHEATTQAFAQGLEVVPDAGLLAEVAGLVEWPVVLMGPIGEEFLGLPPEVLQTSMREHQKFFSVRNPATGRIEKFVTVANRETADHGATILKGNAKVLSARLSDASFFWENDRRTVQTVGLEGMAAGLAHVTFHNKLGSQADRIARIEALAREIAPLVGASPDLAAEAARVAKADLQSAMVGEFPELQGTMGSYYARAAGLPEPVALACKAHYQPLGPSDAVPTDPVSVAVALADKIDTLTGFWAIDEKPTGSKDPFALRRAALGVVRLLLMNGLRLSLLNQVRFAHGCLAEQFNSRFNFFVQIREEPKEAVNIGVGHRYPEVVSDQCTSILMGYVENPVESVASGKFTIDGRAVGTKP”: the “soluble on expression in E. coli” value is recorded as “not soluble”.

With “MFERVREDIQSVFHRDPAARNALEVLTCYPGLHAVWLHRLAHGLWTSGWKWLARLVSNFGRWMTGIEIHPGARIGRRFFIDHGMGIVIGETAEIGDDVTLYQGVTLGGTTWNKGKRHPTLGNNVVVGAGAKVLGPFTVGEGAKVGSNAVVTKEVPPGATVVGIPGRIIMREDSEQQAKRQAMAEKLGFDAYGVSQDMPDPVARAIGQLLDHLQAVDGRLEGMCQALTALGSDYCAKDLPVLREEDFAGVKDEDGNPAA”, the “soluble on expression in E. coli” value was “not soluble”.

As to “GMAINIIEYNRSYKEELIEFILSIQKNEFNIKIDRDDQPDLENIEHNYLNSGGQFWLAINNHQNIVGTIGLIRLDNNMSALKKMFVDKGYRNLKIGKKLLDKVIMTCKEQNIDGIYLGTIDKFISAQYFYSNNGFREIKRGDLPSSFPKLDVDNRFYYRNLKD”, the “soluble on expression in E. coli” value is recorded as “soluble”.

As for “MASSLHSPGQAFRAALAKENPLQIVGAINANHALLAQRAGYQAIYLSGGGVAAGSLGLPDLGISTLDDVLTDIRRITDVCPLPLLVDADIGFGSSAFNVARTVKSIAKAGAAALHIEDQVGAKRCGHRPNKAIVSKEEMVDRIRAAVDARTDPNFVIMARTDALAVEGLEAALDRAQAYVDAGADMLFPEAITELSMYRRFADVAQVPILANITEFGATPLFTTDELRSAHVAMALYPLSAFRAMNRAAEKVYTVLRQEGTQKNVIDIMQTRNELYESINYYQFEEKLDALYRNKKSLEHHHHHH”, the “soluble on expression in E. coli” value was “soluble”.

In the case of “MVQLNGKVAIVTGGAKGIGKAITVALAQEGAKVVINYNSSKEAAENLVNELGKEGHDVYAVQADVSKVEDANRLVEEAVNHFGKVDILVNNAGITRDRTFKKLNREDWERVIDVNLSSVFNTTSAVLPYITEAEEGRIISISSIIGQAGGFGQTNYSAAKAGMLGFTKSLALELAKTNVTVNAICPGFIDTEMVAEVPEEVRQKIVAKIPKKRFGQADEIAKGVVYLCRDGAYITGQQLNINGGLYM”, the “soluble on expression in E. coli” value is “not soluble”.

“MGSDKIHHHHHHMYLDVIEPDHPDYLTALLVKADLYDTEGLTEVAREKLLEASQISQEPLVIFGLAEIEMNLSDFQAAIQHYAQLDNRAILEETGVSTYERIGRAYASLGKFETAIEFLEKAVEIEFDETTVFEVATLLYDQEEYQRANLYFKQLDSMNPDFAGYEYNYALSLHAEHQTKQALRMLQQGLSKNEFDSQLLLLASQLSYELHDKKAAENYLLKVLETAEDDEEALMRLSNLYLEENRFEDVINLDRADIDSVLTKWNIAKAYQKLEADTKALEIYDTLIVDLADNPDFLKDYIYILRKFGYDEKVKTFADKYLQLVPDDNDIADLREQLQ”: the “soluble on expression in E. coli” value is “not soluble”.

On to “MAHHHHHHMVLLKILKKIKDNKRNLRILILGLDNAGKTTIIKRLLGEDIYSVSPTFGFNIETLEFGNNILNIWDIGGQKSIRHFWKNYYEDVDGIIFVVDSTDLFRLQLCSFELKQILKEERLYGSTLLILSNKVDIDKSLTINQIVEILKLNEMNMDRHWCINECSAFSGKGLLKSFMWLIDDITDRIDS”, for which the “soluble on expression in E. coli” value is given as “not soluble”.

In the case of “MGSDKIHHHHHHMERIPVIKTSDLSIGYILKGGQKKRVHDALDLNLYPGEVTCLLGLNGAGKSTLLRTLCGFQPPLGGEIELMGKPLNSYSQGNFSRLVGVVLTEKTNAGGITVYELVSLGRHPYTGFFGQLRQEDRRIIEESLAAAGIAHKAYNYVSELSDGERQKAMIAKALAQQCPIILLDEPTAFLDVTSRIETMVLLHTLAVEQQKAILLSTHDLDLAIQLGDCLWLQEKKRPMACGTPEDLIMGGAFETFFSKEGIVFDPNTGKLNTVAPAKLIGVAGDFMTSYWVGNALIRNGFKPSSVSEDYISVYCNAPDSLRIQFPAEEGTRIVGSVAEMISIIIHKS”, the “soluble on expression in E. coli” value is on record as “not soluble”.

“MSEMSLIMLAAGNSTRFNTKVKKQFLRLGNDPLWLYATKNLSSFYPFKKIVVTSSNITYMKKFTKNYEFIEGGDTRAESLKKALELIDSEFVMVSDVARVLVSKNLFDRLIENLDKADCITPALKVADTTLFDNEALQREKIKLIQTPQISKTKLLKKALDQNLEFTDDSTAIAAMGGKIWFVEGEENARKLTFKEDLKKLDLPTPSFEIFTGNGFDVHEFGENRPLLLAGVQIHPTMGLKAHSDGDVLAHSLTDAILGAAGLGDIGELYPDTDMKFKNANSMELLKQAYDKVREIGFELINIDICVMAQSPKLKDFKQAMQSNIAHTLDLDEFRINVKATTTEKLGFIGRKEGMAVLSSVNLKYFDWTRL”: the “soluble on expression in E. coli” value is “soluble”.

On to “MAHHHHHHMSFVKGAIHVSILNNYMDFYKESTVDKIETSFSIRNNNESNTKNNEKRKSSLCIMNDEEKMKNKISKCIKNNNLYKNKKKRRKEKNIISNKSRSKKFLKFNIKGKDKKNNINSNIYNNANNNKLKIKNKNNNNNNNNNKINSCCRNVYKGSTNKRNSKLLLNGEIKHDEIFHTNIDNSFICMNKNDMNLIRKCKENNHPIKQMNTKIKKKKYNKKNVLISKQINKEIQMLKSNNSYIMYHMNEKRNIEKEKKKKKCKKIVKSILYNRKRSHYYISNFLKTCMKIKNNKIQKKLKKYVYLKDIYSTINMSNKQTCNNLNEQNKSQFFFDDLQKVRQVNKCDNKLYKMNFKSLKHQTNGKKNNIKENDNNNNFYNEDNSIAEILSDDYIILNKNKSNKMENKIYNNVINHRHSSEDIYLNHSKSKENNNNLVNSYVMKENNMEDKELMNDNEKKEGQLILKNVNKKIQLCNESKLDNEKKNKGDNIKLGNTKNKDNIYKYLNVLSINKLIKGETYLEKRTKKSDNSNEHKNDNIYDDKKIKYKSVENDTSELLDKNIDNSNFFDEANEKKKKLKKKKMNTCVNKNVMDYVNEDEYYLEERVKKKRKKKKKDNKKYNIKNKNESEEIFEDVSSTNSCIDSNNSGTFIYDEEICKHVINKGNIISNNNNNNNNNNYIVLTGNEKNMNAEEISEYITKQGLNFKEYLIWKEIKIKESKELIHLNLDSSFSVSKGAGLYNYGQNICFFNSIIQAIIRIPYICKDLLNKLHSINCEKRKKKTFCFYCLFEQFACNIISKKSVIKNVLIPYIKKYMCNSYHIGYQEDVHEYLRYFLNSLEKTSFFSSIYIQKMFTGVSKNVTICMNCNNVSLKYEQYYELSLDISSSNNLEDALKHFLSKEMLAGENGYYCEKCKKKKKATKQCVINKLPRVLTIQIKRFFMNSNFDIVKNHKNISYPLYLDMKYYVNNYDLFENNFNNNVISLYEKMNKTNCVGSTTNGPNKKNNKIYHQNNSCNIKSNNHFVHTNYNNKGQNILTPEKLTQQNIIPEHSFSKNKVNYENDFFLNNMNKKRECSNDDIISNINKNENIFFNNKDKEYMINEKYMNTNQCIKLRGGNHNINMHVLKIIENILIDLKESMCQKQIQNKLTSKVLRNMIREKKKLLIKQLKKIKFSKLYKDISLRISKDIDMLYYYFKVNRENDQFKKIIYKYKIDYYEYYVGSTNINADFINYNHNFDSPAKDHHNNNPHQNNDENNNRHSNVNFKEGNAKNSNKKNNYFSFELTGLIKHIGSGTDYGHYIALTKSNNNIYLQCDDNHISYINKKDILNCVKNAYVFIYTCINPEFIDFYNKYVDVLEKKNFDINLPVFEKRVKFKERITMPKEKFINKSLCY”, for which the “soluble on expression in E. coli” value was “not soluble”.

In the case of “MLTSEQVKAMIEGVAKCEHIEVEGDGHHFFAVIVSSEFEGKARLARHRLIKDGLKAQLESNELHALSISVAATPAEWAAKAQ”, the “soluble on expression in E. coli” value was “not soluble”.

“MSNLVLSLDISTSGTGWALFKGSDLIQSGVLKHKSKSYFERGRYMASQLRLIQSRALKKYDCYFSTIAVEKNSVMGPNQQSMLKIGIVTGIILGRLIADNVVFINVSTWRKYWKFSYKDRSKKSMKLQSKIKVEQEFNKSVKDDEADAILIGSYYVNQGYLDELETHDYY”: the “soluble on expression in E. coli” value was “soluble”.

“MGHHHHHHSHMRRAELAGLKTMAWVPAESAVEELMPRLLPVEPCDLTEGFDPSVPPRTPQEYLRRVQIEAAQCPDVVVAQIDPKKLKRKQSVNISLSGCQPAPEGYSPTLQWQQQQVAQFSTVRQNVNKHRSHWKSQQLDSNVTMPKSEDEEGWKKFCLGEKLCADGAVGPATNESPGIDYVQIGFPPLLSIVSRMNQATVTSVLEYLSNWFGERDFTPELGRWLYALLACLEKPLLPEAHSLIRQLARRCSEVRLLVDSKDDERVPALNLLICLVSRYFDQRDLADEPS”: the “soluble on expression in E. coli” value is “not soluble”.

Turning to “MGSDKIHHHHHHAQYTNIQTWGQKLYYNGSDYPGTFLKLKVAVANPRISGTGGKVVFYDSESSQYNYIEVKGVYQSSDARLKTNITPLNSGLGTILGLKPVSYNWKSETSQLRSAEAVPSKAFGFLAQEVAEVMPEIVTLSSTGDSLVDYTAVIPVLVQAVKELDATIQQLELQLDEKANLSDLQNNKNLTSKSLLSNAVMNQNTPNPFNSTTNISFTIPTSARSAFISICNLQGTQVKKFDIATRGEGSIMVSFSDLGVAGMYMYSLVVDGQLISTKRMLLVQ”, the “soluble on expression in E. coli” value is recorded as “not soluble”.

Regarding “MGSDKIHHHHHHMRLVVDGFGKYLGIENGLIVVKEKGKALRKVRPEDLKQVLIIGKAAISSDAIKLLLKNRVDVVFLDFNGEILGRLSHPLIGTAKTRREQYLAYGDKRGVHLAKEFIKAKMANQMAILTNLAKARKDSNPEVAESLLKAKKEIDACLNELDGVEAEMIDKVRERLLGIEGKASKHYWDAISLVIPEEYRFNGRRGIEIGSPRYAKDIVNAMLNYGYSILLAECVKAVELAGLDPYAGFLHVDVSGRSSLAIDLMENFRQQVVDRVVLRLISYRQIKPEDCEKRNMVCQLSDNARRLLLASLLERLDSKTQYRGRNLAYSSIILLHARDVVAFLRGERRYEGFVQKW”, the “soluble on expression in E. coli” value is reported as “not soluble”.

In the case of “MTAVRRIRAAALPDLPDASWSNALLVGEELVMSGMTAHPATRQAAERGAALDAHAQALVVLGKVKALLEAAGGHVGNLYKLNVYVTRIADKDAIGRARQEFFAGQGTFPASTLVEVSGLVFPELLVEIDAWARLDIDLANCDEA”, the “soluble on expression in E. coli” value is on record as “soluble”.

Regarding “MRSFIIFSTLLVILVQCGYPVAENSYPTTPSYPTPPPSYPTPKKYPVAPTYPSTPSYSAPPAQSAYSSSDNQEDTESESVTGAASTSEYRKRAKARTAHNRQFQRRALQPIKRFQQKKQ”, the “soluble on expression in E. coli” value was “not soluble”.

For “MGSDKIHHHHHHMPTLPAYPLFREHSLLYLAHMGISKLKPSNSATTLLQLAREVLAIEAREVQALAGRLDQSFVNAVELILQCRGRVVVTGIGKSGHIGNKIAATLASTGTPAFFMHPAEASHGDLGMITRDDVVIALSNSGEADELLALLPPLKRIGTPIISISGNRHSTLSKAADIFLDAHVSQEACPLGLAPTASTTAALALGDALAVTLLDQRGFSREDFALAHPGGSIGRRLLLHVQDVMRSGDDIPAVSVSSSLKDGLLEMSRKGLGMTAVLDAADKPVGIFTDGDLRRAFEAGIDINGTRMADVMHAHPRSILPGQLAVDALALMEQYSISSLLVVDQQGNLVGALNMHDLLMAKVV”, the “soluble on expression in E. coli” value is given as “not soluble”.
